Source: PMC9608600, “Functional Characterization of Saccharomyces cerevisiae P5C Reductase, the Enzyme at the Converging Point of Proline and Arginine Metabolism” (Microorganisms, 2022)

T1: Saccharomyces cerevisiae P5C reductase (Pro3, ScP5CR) (Saccharomyces cerevisiae, UniProt P32263)
T1 construct: native full-length enzyme purified from commercial bakers' yeast; untagged; gene-deduced subunit 30,132 Da; native 320 kDa, homodecamer
T1 sequence (P32263 1-286): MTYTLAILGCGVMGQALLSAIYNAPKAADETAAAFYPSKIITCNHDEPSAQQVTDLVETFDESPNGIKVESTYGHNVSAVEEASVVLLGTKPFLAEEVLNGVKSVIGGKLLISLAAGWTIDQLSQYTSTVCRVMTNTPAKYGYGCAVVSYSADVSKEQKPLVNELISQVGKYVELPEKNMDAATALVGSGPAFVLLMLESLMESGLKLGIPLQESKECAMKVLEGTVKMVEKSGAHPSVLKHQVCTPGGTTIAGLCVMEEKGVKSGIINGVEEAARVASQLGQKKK

B1: Saccharomyces cerevisiae P5C reductase (Pro3, ScP5CR) (Saccharomyces cerevisiae S288C) (protein)
chain: T1 sequence (P32263 1-286)
notes: native full-length enzyme purified from commercial bakers' yeast; untagged; gene-deduced subunit 30,132 Da; native 320 kDa, homodecamer

Assays:
[1] = target: T1, Saccharomyces cerevisiae P5C reductase (Pro3, ScP5CR); assay: NAD(P)H oxidation at […] nm, nonlinear regression; format: biochemical
[2] = substrate: NC(=O)C1=CN([C@@H]2O[C@H](COP(=O)(O)OP(=O)(O)OC[C@H]3O[C@@H](n4cnc5c(N)ncnc54)[C@H](O)[C@@H]3O)[C@@H](O)[C@H]2O)C=CC1; assay: purified protein; format: biochemical, Saccharomyces cerevisiae; details: 1 mM L-P5C, Tris-HCl pH 7.2, 30 °C, kcat per monomer
[3] = substrate: NC(=O)C1=CN([C@@H]2O[C@H](COP(=O)(O)OP(=O)(O)OC[C@H]3O[C@@H](n4cnc5c(N)ncnc54)[C@H](OP(=O)(O)O)[C@@H]3O)[C@@H](O)[C@H]2O)C=CC1; assay: purified protein; format: biochemical, Saccharomyces cerevisiae; details: 1 mM L-P5C, Tris-HCl pH 7.2, 30 °C, kcat per monomer
[4] = substrate: O=C(O)[C@@H]1CCC=N1; assay: purified protein; format: biochemical, Saccharomyces cerevisiae; details: 0.5 mM NADH co-substrate, Tris-HCl pH 7.2, 30 °C, DL-P5C used, concentration as L-P5C

| Molecule | Ki [1] | Km [2] | Vmax [2] | kcat [2] | kcat/Km [2] | Km [3] | Vmax [3] | kcat [3] | kcat/Km [3] | Km [4] |
| --- | --- | --- | --- | --- | --- | --- | --- | --- | --- | --- |
| N=C(N)NCCC[C@H](N)C(=O)O [arginine] | 19 mM | – | – | – | – | – | – | – | – | – |
| B1 | – | 84.0 ± 7.1 µM | 107.9 ± 3.0 μkat (mg protein)^−1 | 3314 s⁻¹ | 3.95e+07 M⁻¹ s⁻¹ | 133.4 ± 7.3 µM | 294.2 ± 5.7 μkat (mg protein)^−1 | 10,515 s^−1 | 7.88e+07 M⁻¹ s⁻¹ | 64.3 ± 5.5 µM |
